Results on four molecules are retold here after publication PMC11847541, “Liver fatty acid binding protein FABP1 transfers substrates to cytochrome P450 4A11 for catalysis” (The Journal of Biological Chemistry, 2025).

As a reminder, the Kd is a measure of binding affinity in units of concentration. Low readings indicate a tighter complex, high ones a looser complex. For orientation: koff means the rate constant with which the complex falls apart. The term kon denotes the rate constant with which the complex forms. Low readings indicate slow association, high ones fast association.

Data set [1] addresses T1, P450 4A11 (Homo sapiens, UniProt Q02928).
T1 sequence (Q02928 5-519): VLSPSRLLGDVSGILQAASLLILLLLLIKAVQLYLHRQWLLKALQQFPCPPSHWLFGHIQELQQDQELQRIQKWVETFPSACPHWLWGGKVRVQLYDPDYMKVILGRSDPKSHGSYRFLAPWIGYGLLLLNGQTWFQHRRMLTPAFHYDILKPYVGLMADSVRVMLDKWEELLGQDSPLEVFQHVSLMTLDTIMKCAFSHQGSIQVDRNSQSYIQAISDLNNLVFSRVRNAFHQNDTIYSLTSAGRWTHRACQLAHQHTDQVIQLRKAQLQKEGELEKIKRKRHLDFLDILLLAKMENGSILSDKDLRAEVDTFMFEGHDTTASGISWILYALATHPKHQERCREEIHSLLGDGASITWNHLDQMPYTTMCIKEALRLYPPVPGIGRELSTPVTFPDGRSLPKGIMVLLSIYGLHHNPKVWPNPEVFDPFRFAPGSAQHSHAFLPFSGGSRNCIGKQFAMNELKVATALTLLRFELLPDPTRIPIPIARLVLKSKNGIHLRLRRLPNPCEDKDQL
More on the design: made in house; host or cells: E. coli; method as in PMID 25203493. The settings on record: cited from earlier work.

In data set [2] the target is T1, P450 4A11.
Data set [3] addresses T2, P450 4A11 (Homo sapiens, UniProt Q02928).
T2 construct: made in house; host or cells: E. coli
T2 sequence (Q02928 5-519): T1 sequence (Q02928 5-519)
T2 sequence (P07148 with tags, fused parts or gaps partner): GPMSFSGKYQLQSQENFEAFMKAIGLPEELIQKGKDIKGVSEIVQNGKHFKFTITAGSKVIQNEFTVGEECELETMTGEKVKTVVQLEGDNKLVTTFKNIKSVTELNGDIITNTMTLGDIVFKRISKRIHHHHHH
The data set is described as follows: Fluorescence titration of Alexa-FABP1 with P450 4A11. The class given is binding. As for the experimental part:
(§1) The Alexa-FABP1 construct was tested for P450 binding in a fluorescence titration with P450 4A11.
(§2) Figure 10 Binding of Alexa-FABP1 to P450 4A11.A, equilibrium binding titration of Alexa-FABP1 (25 nM) with P450 4A11 as the titrant (0–50 nM). Titrations were performed in 10 mM (closed circles) or 100 mM (open circles) potassium phosphate buffer (pH 7.4). A control reaction was performed with P450 101A1 (P450cam) in 100 mM KPhos (open squares). The change in fluorescence upon protein–protein binding was normalized to the corresponding change in a buffer control. […] Each data point corresponds to one independent replicate, ≥3 biological replicates were collected to confirm the effect. B, kinetics of binding of Alexa-FABP1 (0.125 μM) and P450 4A11 (0.125 μM). Six traces were averaged, and the data were fit to a single exponential curve (in red). The extracted binding rate was 2.0 ± 0.2 s^−1. FABP1, fatty acid binding protein.
Alexa-FABP1 (25 nM [estimated by an asborbance at 280 nm prior to conjugation reaction, accounting for dilution, and assuming no protein loss during the reaction]) was prepared in potassium phosphate buffer (10 mM or 100 mM, pH 7.4) in a 1 ml glass cuvette. A buffer baseline was recorded using an OLIS DM-45 spectrofluorometer (1.24 mm slit width) with excitation wavelength of 470 nm and scanning emission spectra from 500 to 600 nm. P450 4A11 (stored in 100 mM potassium phosphate buffer [pH 7.4] containing 20% glycerol) was titrated (0–50 nM) into the Alexa-FABP1 solution. The same experiment was repeated but with the P450 4A11 buffer used as the titrant to normalize the data for any solvent effect. […] As stimulation was observed by the P450 interaction, the value of one was subtracted from the normalized fluorescence values so that the curve would have an (x, y) intercept of (0, 0). Kd values were calculated fitting plots of the normalized fluorescence at emission maximum versus concentration of P450 4A11 using a quadratic equation in GraphPad Prism software.

Data set [4] deals with T3, P450 101A1 (P450cam) (Pseudomonas putida, UniProt P00183).
T3 construct: made in house
T3 sequence (P00183 whole entry, looked up): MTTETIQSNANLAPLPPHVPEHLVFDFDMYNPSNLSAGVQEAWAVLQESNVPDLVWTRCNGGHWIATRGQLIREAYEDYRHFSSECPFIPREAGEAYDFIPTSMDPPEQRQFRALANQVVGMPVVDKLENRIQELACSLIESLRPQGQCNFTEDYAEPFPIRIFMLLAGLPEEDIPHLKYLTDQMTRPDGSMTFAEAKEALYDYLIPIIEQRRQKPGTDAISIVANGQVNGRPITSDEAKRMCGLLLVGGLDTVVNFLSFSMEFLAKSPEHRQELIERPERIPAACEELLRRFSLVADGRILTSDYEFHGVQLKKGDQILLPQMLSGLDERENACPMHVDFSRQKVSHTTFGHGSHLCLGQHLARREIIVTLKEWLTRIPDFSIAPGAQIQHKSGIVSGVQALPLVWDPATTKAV
In words: Control fluorescence titration of Alexa-FABP1 with P450 101A1 (P450cam). The class given is binding, bacterial. The settings on record: 100 mM KPhos. The protocol: as §1, §2

The target in data set [5] is T2, P450 4A11. The data set is described as follows: Alexa-FABP1 and P450 4A11 association kinetics (stopped-flow fluorescence). It is filed as binding. The protocol:
We then investigated whether the rate of protein–protein association could be estimated using our fluorescent construct. A solution of Alexa-FABP1 (125 nM final concentration) was rapidly mixed with P450 4A11 (125 Nm final concentration), and Alexa-488 fluorescence was monitored over time. The data were fit to a single exponential equation and yielded an association rate of 2.0 ± 0.2 s^−1 (Fig. 10B).
To estimate a rate of interaction for FABP1 and P450, we loaded the protein–protein binding data (Fig. 10B) and fit the data to a simple model, E+F↔EF , as described in the Experimental procedures section. The software fit a kon rate of 2.0 × 10^7 M^−1 s^−1, close to that estimated by using the extracted binding rate ∼2 s^−1 at the concentration (0.125 μM) of either reaction component (i.e., 2 s^−1/0.125 μM = 16 μM^−1 s^−1 = 1.6 × 10^7 M^−1 s^−1).
Mixing solutions (2 ml) of (A) Alexa-FABP1 (0.25 μM [estimated by A280 prior to conjugation reaction, accounting for dilution, and assuming no protein loss during the reaction as described earlier]) and (B) P450 4A11 (0.25 μM) were prepared in potassium phosphate buffer (100 mM, pH 7.4) and loaded into the stopped-flow spectrofluorometer described earlier. The instrument (1.24 mm slit width) was set with an excitation wavelength of 470 nm and Oriel end-on filter for emission >495 nm. The fluorescence maximum of Alexa-FABP1 is 510 nm as described earlier, and stimulation is observed upon protein–protein binding (see “Titrations of Alexa-FABP1 with P450 4A11”). At least six replicate measurements were recorded, the spectra were processed such that the fluorescence gain (from DAUDA binding) began at an (x, y) intercept of (0, 0), and the spectra were averaged. A smoothing factor of 0.4 was applied to the data (in Microsoft Excel), and the resulting curve was fit to a single exponential plot in GraphPad Prism, and the rate of association was extracted. The data were loaded into KinTek Explorer and fit to a minimal kinetic model of protein–protein association (i.e., E+F↔EF ), and a second-order rate constant for the association was extracted.

For data set [6], the target named is T4, Cytochrome P450 4A11 (human, UniProt Q02928 5-519).
T4 construct: cytochrome P450 4A11, human fatty acid ω-hydroxylase
T4 sequence (looked up): T1 sequence (Q02928 5-519)
In words: other fluorescence titration; Alexa-FABP1 (25 nM) in the cuvette, P450 4A11 titrated in (0–50 nM); 10 mM potassium phosphate, pH 7.4; excitation 470 nm, emission maximum 510 nm; quadratic fit; no phospholipid. The settings on record: both partners purified.

Data set [7] deals with T4, Cytochrome P450 4A11. The data set is described as follows: other fluorescence titration; Alexa-FABP1 (25 nM) in the cuvette, P450 titrated in (P450 4A11 0–50 nM); 100 mM potassium phosphate, pH 7.4; excitation 470 nm, emission maximum 510 nm; normalized to a buffer titration; no phospholipid. The settings on record: both partners purified.
The target in data set [8] is T4, Cytochrome P450 4A11. The data set is described as follows: stopped-flow fluorescence kinetics; Alexa-FABP1 and P450 4A11 rapidly mixed, 0.125 μM each final; 100 mM potassium phosphate, pH 7.4; excitation 470 nm, emission >495 nm; single exponential fit and KinTek Explorer fit to E+F↔EF. The settings on record: both partners purified.

Where “and” joins values, the source holds several entries; their conditions need not be identical. Equal values may be shown once. Read-outs that look alike come from different tables or passages of the source.

Consider `O=C(O)CCCCCCCCCCCO` [12-OH laurate], for which, in data set [1], the “P450 heme Soret spectral shift induced” value is “typical type I spectral shift”.

For the molecule `CC(=O)N1CCN(c2ccc(OCC3COC(Cn4ccnc4)(c4ccc(Cl)cc4Cl)O3)cc2)CC1` (centres unmarked) [ketoconazole], the “P450 heme Soret spectral shift induced” value in data set [2] is “type II”.

With “Alexa-FABP1: FABP1 labeled at Cys-71 with Alexa-488 C5 maleimide”, the “decrease of Kd on reducing ionic strength” value in data set [3] (100 mM to 10 mM potassium phosphate) is roughly 38 fold. In data set [3] (dependent on ionic strength), the Kd lay within 3 to 124 nM. Also, the “change of Alexa-FABP1 fluorescence” value in data set [4] was “mild attenuation of fluorescence”. In addition, the “rate of protein–protein association” value in data set [5] (Alexa-FABP1 0.125 μM, P450 4A11 0.125 μM, single exponential) is ~2 s⁻¹ and 2.0 ± 0.2 s⁻¹. Moreover, in data set [5] (KinTek fit to E+F↔EF), the “kon of FABP1–P450 4A11 association (k6)” value is roughly 2e+07 M⁻¹ s⁻¹.

B1: Alexa Fluor 488–labeled FABP1 (natural protein, human, UniProt P07148 1-127, looked up)
chain: MSFSGKYQLQSQENFEAFMKAIGLPEELIQKGKDIKGVSEIVQNGKHFKFTITAGSKVIQNEFTVGEECELETMTGEKVKTVVQLEGDNKLVTTFKNIKSVTELNGDIITNTMTLGDIVFKRISKRI
modifications: Alexa Fluor 488 C5 maleimide on Cys-71 of the construct (Cys-69 of FABP1); low background labeling of free amines
notes: final construct is a 15,185.4 Da protein; Cys-69 of FABP1 is Cys-71 in the construct. numbers count on: Cys-71 on the construct, Cys-69 on FABP1; The unlabeled, delipidated form of the same protein was used in the palmitate transfer and catalytic assays; also called Alexa-FABP1; Alexa-488-labeled FABP1; not shown: GST, N-terminal, cleaved; His6, C-terminal, kept
B1 came in with a Kd in data set [6] of 3.3 ± 0.9 nM. For the same molecule, the Kd in data set [7] was determined as 120 ± 80 nM. In data set [8], this molecule returned a koff of 2.4 s⁻¹ and a kon of 2e+07 M⁻¹ s⁻¹.
